Results: article PMC5906708, “Manipulation of Light Signal Transduction Factors as a Means of Modifying Steroidal Glycoalkaloids Accumulation in Tomato Leaves”

B1: GAME1 promoter G-box probe (dsDNA)
DNA 1: GATTGCTTAAAGAGAGAATACCACGTGATGTCCCCCACACCACACCTGCT
DNA 2: AGCAGGTGTGGTGTGGGGGACATCACGTGGTATTCTCTCTTTAAGCAATC
B2: GAME4 promoter G-box probe (dsDNA)
DNA 1: GTTGGGGGGCTAAATTATATTCACGTGATTGTATTTTTTTTTTTAATTGC
DNA 2: GCAATTAAAAAAAAAAATACAATCACGTGAATATAATTTAGCCCCCCAAC
B3: GAME2 probe (dsDNA)
DNA 1: ATCCCAAAAGAGTTGTTAGGTCGTGCACAAAACCCGTTTTCTGCGAAAAT
DNA 2: ATTTTCGCAGAAAACGGGTTTTGTGCACGACCTAACAACTCTTTTGGGAT
B4: GAME6 probe (dsDNA)
DNA 1: ATAATAACACCGTTTCTCTGCTTTAAGCGTGCTTTTTATCTCATAACTAAAAACT
DNA 2: AGTTTTTAGTTATGAGATAAAAAGCACGCTTAAAGCAGAGAAACGGTGTTATTAT
B5: GAME11 probe (dsDNA)
DNA 1: AAGTAAATTATAAATATACGTGACGAAAACGATCTTTAAAATTCTTTGTA
DNA 2: TACAAAGAATTTTAAAGATCGTTTTCGTCACGTATATTTATAATTTACTT
B6: GAME12 probe (dsDNA)
DNA 1: GAAACGATATAATATACGTGATACAAGTTTATTAATAAATCAATGGCCCA
DNA 2: TGGGCCATTGATTTATTAATAAACTTGTATCACGTATATTATATCGTTTC
B7: GAME18 probe (dsDNA)
DNA 1: TGATACAACTAAAAGACATACGTTTAAAAAAGCAAATTGATCAAGTCGTTTG
DNA 2: CAAACGACTTGATCAATTTGCTTTTTTAAACGTATGTCTTTTAGTTGTATCA
B8: GAME17 promoter G-box probe (dsDNA)
DNA 1: CGACATTTGATTGAATTTTAAATTTCACACGTGATACATAGATTGAGATT
DNA 2: AATCTCAATCTATGTATCACGTGTGAAATTTAAAATTCAATCAAATGTCG

Tests used:
[1] = biological target: SlPIF3 (GST-PIF3) (Solanum lycopersicum, UniProt A0A3Q7EQR7 388-618); experiment: EMSA; LightShift Chemiluminescent EMSA kit, 25 min at 22 C, 6% native PAGE; buffer, salt and pH not stated; settings: protein: recombinant, tags: GST (pGEX-4T-1), chain copies: 2, label: biotin
[2] = biological target: T1, SlHY5 (GST-HY5) (Solanum lycopersicum, UniProt Q9SM50 1-158); experiment: as above; settings: protein: recombinant, tags: GST (pGEX-4T-1), chain copies: 2, label: biotin
T1 sequence: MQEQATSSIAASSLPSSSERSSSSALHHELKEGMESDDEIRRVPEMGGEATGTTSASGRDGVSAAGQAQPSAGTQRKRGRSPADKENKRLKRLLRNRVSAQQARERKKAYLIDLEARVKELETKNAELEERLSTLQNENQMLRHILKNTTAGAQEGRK

Sequence of SlPIF3 (GST-PIF3) (A0A3Q7EQR7 entry or part of it): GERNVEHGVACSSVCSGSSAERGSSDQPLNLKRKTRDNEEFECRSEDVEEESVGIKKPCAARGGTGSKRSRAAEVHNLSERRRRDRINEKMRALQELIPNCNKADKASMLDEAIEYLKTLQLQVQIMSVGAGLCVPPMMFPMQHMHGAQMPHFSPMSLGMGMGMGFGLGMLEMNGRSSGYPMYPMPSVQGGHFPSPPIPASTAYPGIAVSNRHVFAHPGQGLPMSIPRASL

Binder	binding result [1]	binding result [2]	binding result ([1]; blunt)	binding result ([2]; blunt)
B1	binds	binds	–	–
B2	binds	binds	–	–
B3	–	–	no binding	no binding
B4	–	–	no binding	no binding
B5	–	–	no binding	no binding
B6	–	–	no binding	no binding
B7	–	–	no binding	no binding
B8	binds	binds	–	–
